The values that follow come from patent US20130144035A1, “COMPOSITIONS AND METHODS FOR LEUKOCYTE-TARGETING MULTI-VALENT IMAGING PROBES” (priority 2010, published 2013).

Series [1] in a line: Partition coefficient (octanol/water). Type of series: physicochemical. The conditions noted are these: average of three measurements. As to the method:
Freshly HPLC purified cFLFLF-PEGn-KTKPPR-^99mTc 8 or 9 (˜350 kBq) in 500 μL of water was mixed with 500 μLof octanol in an Eppendorf microcentrifuge tube. The tube was sonicated for […] and then centrifuged at 4,000 rpm for […] (Fisher Scientific Marathon Micro-A). Aliquots (100 μL) of octanol and aqueous layers were carefully separated and radioactivity of samples were counted. Log P is derived as the log of the ratio of radioactivity in octonol to radioactivity in water. The measurement was repeated in triplicate and data presented is the average of three measurements.

In series [2] the test system is isolated human neutrophils (formyl peptide and tuftsin receptors). In words: Neutrophil binding, saturation assay. Particulars: for Kd: TNF-α treated human neutrophils, 25° C., 90 min, saturation assay. The procedure: Human tumor necrosis factor-α (TNF-α) was procured from Perpotech, and fMLF was purchased from Sigma. Aliquots of both samples were taken (TNF-α, 10 U/mL, and fMLF, 10 mM) and stored at −20° C. For every assay the solutions were thawed to ambient temperature and freshly diluted with […] (HA) buffer before use. Multiscreen high-throughput screening (HTS) with glass fiber filter (FC) 96-well plates, type C, with […] glass filters were purchased from Millipore. Filtration from 96-well plates was performed under vacuum on a Brandel filtration device. The membranes from each well were collected by punching with the Millipore Multiscreen punching instrument. The radioactivity from ^99mTc-bound ligand was measured with either Minaxi (Packard), Autogamma 5000 series (Packard), or Wallac 1420 Wizard (Perkin-Elmer) γ-counters. Radioactivity was measured for 1 min per sample and was not corrected for decay.
Human neutrophils were prepared from normal heparinized (10 U/mL) venous blood by a 1-step Ficoll-Hypaque separation procedure (15, 16), yielding approximately 98% neutrophils; greater than 95% viable as determined with trypan blue containing less than 50 pg/mL of endotoxin. After separation, neutrophils were washed with Hank's balanced salt solution with heparin (10 U/mL) 3 times. After the third wash, neutrophils were resuspended in HA buffer, which was Hank's balanced salt solution supplemented with 0.1% human albumin (Bayer Healthcare). Neutrophil experiments were completed in HA buffer.
Freshly isolated human neutrophils (4×10^6 cells/mL) were treated with TNF-α(10 U/mL, Peprotech) twenty minutes prior to binding studies and transferred to a 96 well plate (Multiscreen® HTS FC by Millipore, Billerica, Mass. 1.2 μm glass filter type C, 50.0 μL, 2.0×10^5 cells/well). […] The bounded radioactivity remaining on the membranes was measured in a gamma counter. Specific binding was calculated as the difference between total binding and nonspecific binding at the highest concentration. […]

The nature of the next series: Biodistribution. The conditions noted are these: normal mice, 18 hours post injection. It is filed as in vivo. As to the method: Body distribution of radioactivity was determined in control (n=3) mice 18 h after injection of tracer. After a single blood sample had been taken from the tail vein, mice were euthanized by deep halothane anesthesia. The organs and tissues (ear, heart, lungs, muscle, bone, liver, kidney, spleen, small intestine, and stomach) were collected, rinsed with PBS, wiped with filter paper and weighed in a pre-weighed vial. The radioactivity of each sample was measured in a γ-well counter and decay-corrected back to the time of tracer injection. Biodistribution values are expressed as a percentage of the injected dose (% ID) and normalized by body and organ/tissue mass.

The nature of the next series: Blood clearance. It is filed as in vivo. Particulars: mouse, whole blood, intravenous, control mice (n=3), tail vein injection, mono-exponential clearance; read-out: elimination half-life for blood clearance (T1/2). The procedure:
Blood kinetics of cFLFLF-PEG12-TKPPR-^99mTc was studied in 3 control (non-inflamed) mice. Approximately 50 μL of blood from the contralateral tail vein were collected in capillary tubes at 15, 30, 45, 60, 120, and 180, 360 min after tracer injection (0.37-0.74 MBq). The capillary tubes were placed in a vial that was weighed beforehand and afterward. Activity in each blood sample was measured in a radioisotope calibrated well counter (CRC-15W, Capintec, Inc, NJ), decay corrected back to the time of tracer injection, normalized for injected dose and animal body weight, and expressed as % ID/g of blood.

Another series in a line: Serum stability. Type of series: in vitro ADME. Particulars: fetal bovine serum. The procedure: Fifty microcuries of the cFLFLF-PEG12-TKPPR-^99mTc was added in to 100 μL of fetal bovine serum (Invitrogen, Grand Island, N.Y.). After incubation at 37° C. for 1, 3, and 6 hrs, aliquots of the mixture was filtered through a […] micro spin filter. The filtrates were analyzed by reverse-phase HPLC with a Bioscan Flow Count Radio-HPLC detector. All of newly formed γ-peaks besides the original cFLFLF-PEG12-TKPPR-^99mTc peak would be considered as degraded products.

Series [3] concerns PMA-induced ear inflammation (neutrophil accumulation). Kind of series: SPECT/CT imaging in mouse ear inflammation model (PMA). It is filed as in vivo. Particulars: 27 hours after PMA challenge, 3 hours post injection. As to the method:
A female FVB mouse, 5 month old, with left ear inflammatory lesion was used to preliminarily assess the ability of the cFLFLF-PEG12-TKPPR-^99mTc to detect inflammation as a result of neutrophils migration and accumulation. The animal model is similar to that described by Gross et al. (19). Topical application of PMA (2.5 μg in 20 μl DMSO) onto the left earlobe induces acute dermatitis, manifested by local swelling, erythema and infiltration of neutrophils (20, 21). The right ear served as control and received only DMSO (vehicle). The SPECT/CT imaging was correlated with myeloperoxidase (MPO) activity determined by non-invasive bioluminal-bioluminescence imaging (19).
Twenty-four hours after PMA challenge, 3.7 MBq […] of cFLFLF-PEG12-TKPPR-^99mTc in 200 μl of saline was administered via tail vein. […] All SPECT images were corrected for radioactivity decay but not for gamma ray attenuation.
Co-registration of SPECT and CT images was performed using ASIPRO software (Siemens Medical Solutions USA, Inc., Knoxyille, Tenn.) and a transformation matrix previously obtained with a dual modality phantom. To characterize the accumulation of the tracer in the ears, volume-of-interest (VOI) analysis was performed to identify the number of detected counts originating in the ears. […] This activity was expressed as percentage of the injected dose per mouse body mass (% ID/g).

The conditions of series [4]: mouse, in vivo; cited from earlier work.
For series [5] the following is noted: mouse, in vivo; cited from earlier work. This is another data set of the same source.

Like-named read-outs stand apart in the source and are kept apart here. Square brackets hold non-standard residues; d marks the D form. Peptide text beside a SMILES is read from it. * marks the point of attachment. PEG12 = NCCOCCOCCOCCOCCOCCOCCOCCOCCOCCOCCOCCOCCC(=O)O; PEG4 = NCCOCCOCCOCCOCCC(=O)O; HYNIC = NNc1ccc(C(=O)*)cn1; X1 = O=C(/C=C/c1ccccc1)*

Broadly, the logP is a log measure of how a compound divides between an organic and an aqueous phase. A high value points to higher lipophilicity. Broadly, the Kd is the constant that tells how readily two partners part at equilibrium. With `CC(C)C[C@@H](NC(=O)[C@H](Cc1ccccc1)NC(=O)[C@@H](CC(C)C)NC(=O)[C@H](Cc1ccccc1)NC(=O)/C=C/c1ccccc1)C(=O)N[C@@H](Cc1ccccc1)C(=O)NCCOCCOCCOCCOCCC(=O)N[C@@H](CCCCNC(=O)c1ccc(NN)nc1)C(=O)N[C@H](C(=O)N[C@@H](CCCCN)C(=O)N1CCC[C@H]1C(=O)N1CCC[C@H]1C(=O)N[C@@H](CCCNC(=N)N)C(=O)O)[C@@H](C)O` [ligand 8, cFLFLF-PEG4-TKPPR-^99mTc, metal not drawn] (X1-F[dL]F[dL]F[PEG4]K(HYNIC)TKPPR-OH), in series [1], the lipophilicity (logP) was -0.77. In series [2], this molecule gave a Kd of 0.0478 µM. The “fold less potent than compound 9” value in series [2] (binding to human neutrophils, ratio of Kd) is listed as “roughly 3 fold”.

In “Biodistribution”, `CC(C)C[C@@H](NC(=O)[C@H](Cc1ccccc1)NC(=O)[C@@H](CC(C)C)NC(=O)[C@H](Cc1ccccc1)NC(=O)/C=C/c1ccccc1)C(=O)N[C@@H](Cc1ccccc1)C(=O)NCCOCCOCCOCCOCCOCCOCCOCCOCCOCCOCCOCCOCCC(=O)N[C@@H](CCCCNC(=O)c1ccc(NN)nc1)C(=O)N[C@H](C(=O)N[C@@H](CCCCN)C(=O)N1CCC[C@H]1C(=O)N1CCC[C@H]1C(=O)N[C@@H](CCCNC(=N)N)C(=O)O)[C@@H](C)O` [ligand 9, cFLFLF-PEG12-TKPPR-^99mTc, metal not drawn] (X1-F[dL]F[dL]F[PEG12]K(HYNIC)TKPPR-OH) showed a blood retaining of 1.2 % ID and a liver uptake of 5.3 % ID. Besides, in “Blood clearance”, the half-life was about 1.4 h. In “Serum stability” (37° C.), the stable in serum result is “at least 6 hours”. The “fragments of 99mTc labeled peptide by HPLC analysis of serum samples” value in the series “Serum stability” (37° C., 1, 3, and 6 hours) was “no appreciable fragments”. Besides, in series [1], the logP was -0.89. In addition, in series [3], the “accumulation of the tracer in the infected ear (left) vs. control ear” value was “about 3.15 folds”. This molecule returned a Kd in series [2] of 0.0151 µM.

With cFLFLFK-PEG-^64Cu, in series [4], the blood retaining is recorded as 0.2 % ID and the liver uptake is 1.5 % ID. Also, the “circulation time (T1/2)” value in series [5] was 0.917 h.
